Data as given in US20050142566A1 (CHILDREN S MEDICAL CENTER, published 2005).

Molecular target: T1, CatSper1 (UniProt Q91ZR5 1-686)
T1 sequence (looked up): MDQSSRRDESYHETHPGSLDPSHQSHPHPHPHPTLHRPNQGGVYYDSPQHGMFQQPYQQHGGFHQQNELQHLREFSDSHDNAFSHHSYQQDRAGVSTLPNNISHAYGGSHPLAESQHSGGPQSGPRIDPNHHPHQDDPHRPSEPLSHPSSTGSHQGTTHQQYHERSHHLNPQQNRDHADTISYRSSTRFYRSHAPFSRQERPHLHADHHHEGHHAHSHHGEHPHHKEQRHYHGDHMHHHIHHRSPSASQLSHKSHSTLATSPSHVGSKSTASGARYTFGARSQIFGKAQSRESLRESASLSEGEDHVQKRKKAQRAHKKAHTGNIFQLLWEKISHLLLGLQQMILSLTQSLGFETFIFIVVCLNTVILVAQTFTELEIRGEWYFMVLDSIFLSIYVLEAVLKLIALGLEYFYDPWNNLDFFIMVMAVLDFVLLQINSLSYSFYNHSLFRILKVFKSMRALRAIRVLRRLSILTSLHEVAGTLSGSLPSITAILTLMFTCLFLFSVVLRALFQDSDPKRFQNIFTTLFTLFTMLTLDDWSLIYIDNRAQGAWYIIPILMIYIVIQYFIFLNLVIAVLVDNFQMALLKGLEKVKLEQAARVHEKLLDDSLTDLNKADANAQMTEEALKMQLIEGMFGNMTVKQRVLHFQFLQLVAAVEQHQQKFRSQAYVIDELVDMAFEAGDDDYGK
Assay: co-immunoprecipitation from testis detergent extracts, immunoblot with CatSper1 antibody
Protocol: For immunoprecipitation, samples were extracted with TBS (20 mM Tris-HCl, 150 mM NaCl, pH 7.4) containing either 1% TX-100 or 1% Zwittergent 3-14 for at least 4 hours at 4° C. The extract was centrifuged at 100,000 ×g for 30 min, and the resultant supernatant solution was incubated for 2 hours with preimmune IgG covalently bound to Protein A agarose (Seize X™, Pierce Chemical Co., Rockford, Ill.). The nonbound fraction was recovered and incubated with peptide reactive antibody (±1.5 μM peptide preincubation)/Protein A agarose overnight with rocking at 4° C. The resulting immune complexes were washed 5 times. SDS-polyacrylamide electrophoresis was according to Laemmli (1970), Nature 227:680-5. Electrophoretically separated samples were transferred to nitrocellulose membranes according to Towbin et al. (1979), Proc. Natl. Acad. Sci. USA 76:4350-4, at 50V for 2 hours, 4° C. Immnunoblots were probed in TBST/2:5% nonfat milk with CatSper2 antibody (1:5000) or CatSper1 (1:2000) antibody. After incubation with, the primary antibody, the blots were rinsed once with TBST/2.5% nonfat milk and washed with TBST (4 changes over 30 min). Blots were then incubated with secondary goat anti-rabbit IgG-HRP conjugate for 1 hour, washed with TBST (3 changes over 30 min), rinsed with TBS (3 times), and the signal detected with chemiluminescence (Pierce Chemical Co., Rockford, Ill.). […]

binding result: no binding
B1: murine CatSper2 protein (SEQ ID NO: 6) (other)
chain: MAQEQGHFQLLRADAIRSKLIDTFSLIEHLQGLSQAVPRHTLREILDPAYQQKLMSGDQEQLVRFSIKPRRMGHITHSRRLLSRLRVRCSRMPPLSLWAGWVLDSSVFSKFIISLIFLNTFVLMVEIELMESTNTALWPVKLALEVADWFILLSFIVEILLMWLASFSLFWKDAWNVFDFFVTLLSLLPELVVLLGVPAHSVWLQLLRVCRVLRSLKLFARFRQIKVILLALVRALKSMTFLLMLLLIFFYIFAVTGVYFFREYSRSTIEGLEYNMFFSDLLNSLVTVFILFTLDHWYAVLQNIWKVPESSRVFSSIYVILWLLLGSIIFRNIIIAMMVTNFQNIRSELSEEMSHLEVQYKADMFKQQIIQRRQHSESLRGTSLGKVSEDIIETSDASDDDDDDDDDDDDDDDDDDDKSDATESDGEESDSENSESENSESEKIDPEKDYAKKSYPEKSHPEKSYPEKSHPEKSYPEKSHPEKSYDEQAEAEKVKEESKEKAYPVSHSISSHGSIAADTAFLENLDWETLVHENLPGLMDMDQDDRIVWPRDSLFRYFELLEKLQYNLEERKKLQEFAVQALMSFEDK
notes: also called mouse CatSper2; 68,000 Mr protein
